According to US20190225650A1, “PEPTIDOMIMETIC MACROCYCLES AND USE THEREOF IN REGULATING HIF1ALPHA” (AILERON THERAPEUTICS, INC., priority 2013, published 2019):
Bridge positions count the residues as written; N and C are the ends. Square brackets hold non-standard residues; d marks the D form. S5 = C=CCCC[C@](C)(N)C(=O)O; Nle = CCCC[C@H](N)C(=O)O

biological target: T1, His6-tagged p300 (AA 323-423) (UniProt Q09472 323-423); test: TR-FRET HIF1a/p300 displacement; grade = IC50 >700 nM
T1 construct: range 323-423; also called p300-CH; not shown: His6 tag
How it was run: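 Competitor peptides were added to the HIF1α CTAD/p300 complex (300 nM final) in 150 mM NaCl, 20 mM HEPES pH 7.4, 7.5 mM CHAPS and 1 mM DTT for 1 h at room temperature. Anti-Flag-K (0.5 μM) and anti-6×His-D2 (4 nM) then followed for 2 h. IC50 came from a one-site logIC50 fit of the donor/acceptor ratio.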

T1 sequence (Q09472 323-423 limits assumed): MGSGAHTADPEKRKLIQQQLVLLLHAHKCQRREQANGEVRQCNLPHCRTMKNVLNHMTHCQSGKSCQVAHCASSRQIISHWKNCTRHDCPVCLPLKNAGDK

Row | IC50 [nM] | Binder
1 | > 700 | Ac-FIDQAVF[Nle][S5]LVI[S5][Nle]ALL-NH2 (staple 9-13; SMILES CCCC[C@H](NC(=O)[C@H](Cc1ccccc1)NC(=O)[C@@H](NC(=O)[C@H](C)NC(=O)[C@H](CCC(N)=O)NC(=O)[C@H](CC(=O)O)NC(=O)[C@@H](NC(=O)[C@H](Cc1ccccc1)NC(C)=O)[C@@H](C)CC)C(C)C)C(=O)N[C@@]1(C)CCCC=CCCC[C@@](C)(C(=O)N[C@@H](CCCC)C(=O)N[C@@H](C)C(=O)N[C@@H](CC(C)C)C(=O)N[C@@H](CC(C)C)C(N)=O)NC(=O)[C@H]([C@@H](C)CC)NC(=O)[C@H](C(C)C)NC(=O)[C@H](CC(C)C)NC1=O) [SP-250]
2 | > 700 | Ac-DFIDEEVL[Nle][S5]LVI[S5][Nle]ALDRI-NH2 (staple 10-14; SMILES CCCC[C@H](NC(=O)[C@H](CC(C)C)NC(=O)[C@@H](NC(=O)[C@H](CCC(=O)O)NC(=O)[C@H](CCC(=O)O)NC(=O)[C@H](CC(=O)O)NC(=O)[C@@H](NC(=O)[C@H](Cc1ccccc1)NC(=O)[C@H](CC(=O)O)NC(C)=O)[C@@H](C)CC)C(C)C)C(=O)N[C@@]1(C)CCCC=CCCC[C@@](C)(C(=O)N[C@@H](CCCC)C(=O)N[C@@H](C)C(=O)N[C@@H](CC(C)C)C(=O)N[C@@H](CC(=O)O)C(=O)N[C@@H](CCCNC(=N)N)C(=O)N[C@H](C(N)=O)[C@@H](C)CC)NC(=O)[C@H]([C@@H](C)CC)NC(=O)[C@H](C(C)C)NC(=O)[C@H](CC(C)C)NC1=O) [SP-29]
3 | > 700 | Ac-LLQ[S5]EEL[S5]RALDQVNIDE[S5]VL[Nle][S5]LVIE[Nle]G-NH2 (staple 19-23, 4-8; SMILES CCCC[C@H](NC(=O)[C@H](CCC(=O)O)NC(=O)[C@@H](NC(=O)[C@@H](NC(=O)[C@H](CC(C)C)NC(=O)[C@]1(C)CCCC=CCCC[C@](C)(NC(=O)[C@H](CCC(=O)O)NC(=O)[C@H](CC(=O)O)NC(=O)[C@@H](NC(=O)[C@H](CC(N)=O)NC(=O)[C@@H](NC(=O)[C@H](CCC(N)=O)NC(=O)[C@H](CC(=O)O)NC(=O)[C@H](CC(C)C)NC(=O)[C@H](C)NC(=O)[C@H](CCCNC(=N)N)NC(=O)[C@]2(C)CCCC=CCCC[C@](C)(NC(=O)[C@H](CCC(N)=O)NC(=O)[C@H](CC(C)C)NC(=O)[C@H](CC(C)C)NC(C)=O)C(=O)N[C@@H](CCC(=O)O)C(=O)N[C@@H](CCC(=O)O)C(=O)N[C@@H](CC(C)C)C(=O)N2)C(C)C)[C@@H](C)CC)C(=O)N[C@@H](C(C)C)C(=O)N[C@@H](CC(C)C)C(=O)N[C@@H](CCCC)C(=O)N1)C(C)C)[C@@H](C)CC)C(=O)NCC(N)=O) [SP-325]
4 | > 700 | Ac-FIAEXVL[Nle]SLVXA[Nle]AL-NH2 (staple 5-12; not fully specified (residues 5, 12); printed as Ac-FIAE-$r8-VL-Nle-SLV-$-A-Nle-AL-NH2) [SP-198]
5 | > 700 | Ac-FIDEEVL[Nle][S5]LVI[S5][Nle]ALDRE-NH2 (staple 9-13; SMILES CCCC[C@H](NC(=O)[C@H](CC(C)C)NC(=O)[C@@H](NC(=O)[C@H](CCC(=O)O)NC(=O)[C@H](CCC(=O)O)NC(=O)[C@H](CC(=O)O)NC(=O)[C@@H](NC(=O)[C@H](Cc1ccccc1)NC(C)=O)[C@@H](C)CC)C(C)C)C(=O)N[C@@]1(C)CCCC=CCCC[C@@](C)(C(=O)N[C@@H](CCCC)C(=O)N[C@@H](C)C(=O)N[C@@H](CC(C)C)C(=O)N[C@@H](CC(=O)O)C(=O)N[C@@H](CCCNC(=N)N)C(=O)N[C@@H](CCC(=O)O)C(N)=O)NC(=O)[C@H]([C@@H](C)CC)NC(=O)[C@H](C(C)C)NC(=O)[C@H](CC(C)C)NC1=O) [SP-42]
6 | > 700 | Ac-FIDEEVL[Nle][S5]LSI[S5][Nle]ALDRI-NH2 (staple 9-13; SMILES CCCC[C@H](NC(=O)[C@H](CC(C)C)NC(=O)[C@@H](NC(=O)[C@H](CCC(=O)O)NC(=O)[C@H](CCC(=O)O)NC(=O)[C@H](CC(=O)O)NC(=O)[C@@H](NC(=O)[C@H](Cc1ccccc1)NC(C)=O)[C@@H](C)CC)C(C)C)C(=O)N[C@@]1(C)CCCC=CCCC[C@@](C)(C(=O)N[C@@H](CCCC)C(=O)N[C@@H](C)C(=O)N[C@@H](CC(C)C)C(=O)N[C@@H](CC(=O)O)C(=O)N[C@@H](CCCNC(=N)N)C(=O)N[C@H](C(N)=O)[C@@H](C)CC)NC(=O)[C@H]([C@@H](C)CC)NC(=O)[C@H](CO)NC(=O)[C@H](CC(C)C)NC1=O) [SP-52]
7 | > 700 | Ac-FIDEEVL[Nle][S5]LVI[S5][Nle]ALDSI-NH2 (staple 9-13; SMILES CCCC[C@H](NC(=O)[C@H](CC(C)C)NC(=O)[C@@H](NC(=O)[C@H](CCC(=O)O)NC(=O)[C@H](CCC(=O)O)NC(=O)[C@H](CC(=O)O)NC(=O)[C@@H](NC(=O)[C@H](Cc1ccccc1)NC(C)=O)[C@@H](C)CC)C(C)C)C(=O)N[C@@]1(C)CCCC=CCCC[C@@](C)(C(=O)N[C@@H](CCCC)C(=O)N[C@@H](C)C(=O)N[C@@H](CC(C)C)C(=O)N[C@@H](CC(=O)O)C(=O)N[C@@H](CO)C(=O)N[C@H](C(N)=O)[C@@H](C)CC)NC(=O)[C@H]([C@@H](C)CC)NC(=O)[C@H](C(C)C)NC(=O)[C@H](CC(C)C)NC1=O) [SP-58]
8 | > 700 | Ac-FSDEEVL[Nle][S5]LVI[S5][Nle]ALDRI-NH2 (staple 9-13; SMILES CCCC[C@H](NC(=O)[C@H](CC(C)C)NC(=O)[C@@H](NC(=O)[C@H](CCC(=O)O)NC(=O)[C@H](CCC(=O)O)NC(=O)[C@H](CC(=O)O)NC(=O)[C@H](CO)NC(=O)[C@H](Cc1ccccc1)NC(C)=O)C(C)C)C(=O)N[C@@]1(C)CCCC=CCCC[C@@](C)(C(=O)N[C@@H](CCCC)C(=O)N[C@@H](C)C(=O)N[C@@H](CC(C)C)C(=O)N[C@@H](CC(=O)O)C(=O)N[C@@H](CCCNC(=N)N)C(=O)N[C@H](C(N)=O)[C@@H](C)CC)NC(=O)[C@H]([C@@H](C)CC)NC(=O)[C@H](C(C)C)NC(=O)[C@H](CC(C)C)NC1=O) [SP-45]
9 | > 700 | Ac-SIDEEVL[Nle][S5]LVI[S5][Nle]ALDRI-NH2 (staple 9-13; SMILES CCCC[C@H](NC(=O)[C@H](CC(C)C)NC(=O)[C@@H](NC(=O)[C@H](CCC(=O)O)NC(=O)[C@H](CCC(=O)O)NC(=O)[C@H](CC(=O)O)NC(=O)[C@@H](NC(=O)[C@H](CO)NC(C)=O)[C@@H](C)CC)C(C)C)C(=O)N[C@@]1(C)CCCC=CCCC[C@@](C)(C(=O)N[C@@H](CCCC)C(=O)N[C@@H](C)C(=O)N[C@@H](CC(C)C)C(=O)N[C@@H](CC(=O)O)C(=O)N[C@@H](CCCNC(=N)N)C(=O)N[C@H](C(N)=O)[C@@H](C)CC)NC(=O)[C@H]([C@@H](C)CC)NC(=O)[C@H](C(C)C)NC(=O)[C@H](CC(C)C)NC1=O) [SP-44]
10 | > 700 | Ac-FIDEESL[Nle][S5]LVI[S5][Nle]ALDRI-NH2 (staple 9-13; SMILES CCCC[C@H](NC(=O)[C@H](CC(C)C)NC(=O)[C@H](CO)NC(=O)[C@H](CCC(=O)O)NC(=O)[C@H](CCC(=O)O)NC(=O)[C@H](CC(=O)O)NC(=O)[C@@H](NC(=O)[C@H](Cc1ccccc1)NC(C)=O)[C@@H](C)CC)C(=O)N[C@@]1(C)CCCC=CCCC[C@@](C)(C(=O)N[C@@H](CCCC)C(=O)N[C@@H](C)C(=O)N[C@@H](CC(C)C)C(=O)N[C@@H](CC(=O)O)C(=O)N[C@@H](CCCNC(=N)N)C(=O)N[C@H](C(N)=O)[C@@H](C)CC)NC(=O)[C@H]([C@@H](C)CC)NC(=O)[C@H](C(C)C)NC(=O)[C@H](CC(C)C)NC1=O) [SP-48]
11 | > 700 | Ac-FIDEEVS[Nle][S5]LVI[S5][Nle]ALDRI-NH2 (staple 9-13; SMILES CCCC[C@H](NC(=O)[C@H](CO)NC(=O)[C@@H](NC(=O)[C@H](CCC(=O)O)NC(=O)[C@H](CCC(=O)O)NC(=O)[C@H](CC(=O)O)NC(=O)[C@@H](NC(=O)[C@H](Cc1ccccc1)NC(C)=O)[C@@H](C)CC)C(C)C)C(=O)N[C@@]1(C)CCCC=CCCC[C@@](C)(C(=O)N[C@@H](CCCC)C(=O)N[C@@H](C)C(=O)N[C@@H](CC(C)C)C(=O)N[C@@H](CC(=O)O)C(=O)N[C@@H](CCCNC(=N)N)C(=O)N[C@H](C(N)=O)[C@@H](C)CC)NC(=O)[C@H]([C@@H](C)CC)NC(=O)[C@H](C(C)C)NC(=O)[C@H](CC(C)C)NC1=O) [SP-49]
12 | > 700 | Ac-FIDEEVLA[S5]LVI[S5]AALDR-NH2 (staple 9-13; SMILES CC[C@H](C)[C@H](NC(=O)[C@H](Cc1ccccc1)NC(C)=O)C(=O)N[C@@H](CC(=O)O)C(=O)N[C@@H](CCC(=O)O)C(=O)N[C@@H](CCC(=O)O)C(=O)N[C@H](C(=O)N[C@@H](CC(C)C)C(=O)N[C@@H](C)C(=O)N[C@@]1(C)CCCC=CCCC[C@@](C)(C(=O)N[C@@H](C)C(=O)N[C@@H](C)C(=O)N[C@@H](CC(C)C)C(=O)N[C@@H](CC(=O)O)C(=O)N[C@@H](CCCNC(=N)N)C(N)=O)NC(=O)[C@H]([C@@H](C)CC)NC(=O)[C@H](C(C)C)NC(=O)[C@H](CC(C)C)NC1=O)C(C)C) [SP-28]
